To fix the notation:
B1: H183/L072 VL Q27R (antibody, name in Kabat numbering, V domains shown)
VH: QVQLVESGGGLVQPGRSLRLSCAASGFTFSNAWMHWVRQAPGKGLEWVAQIKDKGNAYAAYYAPSVKGRFTISRDDSKNSIYLQMNSLKTEDTAVYYCHYVHYASASTVLPAFGVDAWGQGTTVTVSS
VL: DIVMTQSPLSLPVTPGEPASISCQASRELVHMNRNTYLHWYQQKPGQAPRLLIYKVSNRFPGVPDRFSGSGSGTDFTLKISRVEAEDVGVYYCAQGTSVPFTFGQGTKLEIK
notes: Dual-Ig
B2: H183/L072 VL Q90F (antibody, name in Kabat numbering, V domains shown)
VH: QVQLVESGGGLVQPGRSLRLSCAASGFTFSNAWMHWVRQAPGKGLEWVAQIKDKGNAYAAYYAPSVKGRFTISRDDSKNSIYLQMNSLKTEDTAVYYCHYVHYASASTVLPAFGVDAWGQGTTVTVSS
VL: DIVMTQSPLSLPVTPGEPASISCQASQELVHMNRNTYLHWYQQKPGQAPRLLIYKVSNRFPGVPDRFSGSGSGTDFTLKISRVEAEDVGVYYCAFGTSVPFTFGQGTKLEIK
notes: Dual-Ig
B3: H183/L072 VL Q27T (antibody, name in Kabat numbering, V domains shown)
VH: QVQLVESGGGLVQPGRSLRLSCAASGFTFSNAWMHWVRQAPGKGLEWVAQIKDKGNAYAAYYAPSVKGRFTISRDDSKNSIYLQMNSLKTEDTAVYYCHYVHYASASTVLPAFGVDAWGQGTTVTVSS
VL: DIVMTQSPLSLPVTPGEPASISCQASTELVHMNRNTYLHWYQQKPGQAPRLLIYKVSNRFPGVPDRFSGSGSGTDFTLKISRVEAEDVGVYYCAQGTSVPFTFGQGTKLEIK
notes: Dual-Ig
B4: H183/L072 VL Q27V (antibody, name in Kabat numbering, V domains shown)
VH: QVQLVESGGGLVQPGRSLRLSCAASGFTFSNAWMHWVRQAPGKGLEWVAQIKDKGNAYAAYYAPSVKGRFTISRDDSKNSIYLQMNSLKTEDTAVYYCHYVHYASASTVLPAFGVDAWGQGTTVTVSS
VL: DIVMTQSPLSLPVTPGEPASISCQASVELVHMNRNTYLHWYQQKPGQAPRLLIYKVSNRFPGVPDRFSGSGSGTDFTLKISRVEAEDVGVYYCAQGTSVPFTFGQGTKLEIK
notes: Dual-Ig
B5: H183/L072 VL Q90G (antibody, name in Kabat numbering, V domains shown)
VH: QVQLVESGGGLVQPGRSLRLSCAASGFTFSNAWMHWVRQAPGKGLEWVAQIKDKGNAYAAYYAPSVKGRFTISRDDSKNSIYLQMNSLKTEDTAVYYCHYVHYASASTVLPAFGVDAWGQGTTVTVSS
VL: DIVMTQSPLSLPVTPGEPASISCQASQELVHMNRNTYLHWYQQKPGQAPRLLIYKVSNRFPGVPDRFSGSGSGTDFTLKISRVEAEDVGVYYCAGGTSVPFTFGQGTKLEIK
notes: Dual-Ig
B6: H183/L072 VL Q90D (antibody, name in Kabat numbering, V domains shown)
VH: QVQLVESGGGLVQPGRSLRLSCAASGFTFSNAWMHWVRQAPGKGLEWVAQIKDKGNAYAAYYAPSVKGRFTISRDDSKNSIYLQMNSLKTEDTAVYYCHYVHYASASTVLPAFGVDAWGQGTTVTVSS
VL: DIVMTQSPLSLPVTPGEPASISCQASQELVHMNRNTYLHWYQQKPGQAPRLLIYKVSNRFPGVPDRFSGSGSGTDFTLKISRVEAEDVGVYYCADGTSVPFTFGQGTKLEIK
notes: Dual-Ig
B7: H183/L072 VL Q90I (antibody, name in Kabat numbering, V domains shown)
VH: QVQLVESGGGLVQPGRSLRLSCAASGFTFSNAWMHWVRQAPGKGLEWVAQIKDKGNAYAAYYAPSVKGRFTISRDDSKNSIYLQMNSLKTEDTAVYYCHYVHYASASTVLPAFGVDAWGQGTTVTVSS
VL: DIVMTQSPLSLPVTPGEPASISCQASQELVHMNRNTYLHWYQQKPGQAPRLLIYKVSNRFPGVPDRFSGSGSGTDFTLKISRVEAEDVGVYYCAIGTSVPFTFGQGTKLEIK
notes: Dual-Ig
B8: H183/L072 VL Q27W (antibody, name in Kabat numbering, V domains shown)
VH: QVQLVESGGGLVQPGRSLRLSCAASGFTFSNAWMHWVRQAPGKGLEWVAQIKDKGNAYAAYYAPSVKGRFTISRDDSKNSIYLQMNSLKTEDTAVYYCHYVHYASASTVLPAFGVDAWGQGTTVTVSS
VL: DIVMTQSPLSLPVTPGEPASISCQASWELVHMNRNTYLHWYQQKPGQAPRLLIYKVSNRFPGVPDRFSGSGSGTDFTLKISRVEAEDVGVYYCAQGTSVPFTFGQGTKLEIK
notes: Dual-Ig
B9: H183/L072 VL Q27S (antibody, name in Kabat numbering, V domains shown)
VH: QVQLVESGGGLVQPGRSLRLSCAASGFTFSNAWMHWVRQAPGKGLEWVAQIKDKGNAYAAYYAPSVKGRFTISRDDSKNSIYLQMNSLKTEDTAVYYCHYVHYASASTVLPAFGVDAWGQGTTVTVSS
VL: DIVMTQSPLSLPVTPGEPASISCQASSELVHMNRNTYLHWYQQKPGQAPRLLIYKVSNRFPGVPDRFSGSGSGTDFTLKISRVEAEDVGVYYCAQGTSVPFTFGQGTKLEIK
notes: Dual-Ig
B10: H183/L072 VL Q90A (antibody, name in Kabat numbering, V domains shown)
VH: QVQLVESGGGLVQPGRSLRLSCAASGFTFSNAWMHWVRQAPGKGLEWVAQIKDKGNAYAAYYAPSVKGRFTISRDDSKNSIYLQMNSLKTEDTAVYYCHYVHYASASTVLPAFGVDAWGQGTTVTVSS
VL: DIVMTQSPLSLPVTPGEPASISCQASQELVHMNRNTYLHWYQQKPGQAPRLLIYKVSNRFPGVPDRFSGSGSGTDFTLKISRVEAEDVGVYYCAAGTSVPFTFGQGTKLEIK
notes: Dual-Ig
B11: H183/L072 VL Q90H (antibody, name in Kabat numbering, V domains shown)
VH: QVQLVESGGGLVQPGRSLRLSCAASGFTFSNAWMHWVRQAPGKGLEWVAQIKDKGNAYAAYYAPSVKGRFTISRDDSKNSIYLQMNSLKTEDTAVYYCHYVHYASASTVLPAFGVDAWGQGTTVTVSS
VL: DIVMTQSPLSLPVTPGEPASISCQASQELVHMNRNTYLHWYQQKPGQAPRLLIYKVSNRFPGVPDRFSGSGSGTDFTLKISRVEAEDVGVYYCAHGTSVPFTFGQGTKLEIK
notes: Dual-Ig
B12: H183/L072 VL Q27Y (antibody, name in Kabat numbering, V domains shown)
VH: QVQLVESGGGLVQPGRSLRLSCAASGFTFSNAWMHWVRQAPGKGLEWVAQIKDKGNAYAAYYAPSVKGRFTISRDDSKNSIYLQMNSLKTEDTAVYYCHYVHYASASTVLPAFGVDAWGQGTTVTVSS
VL: DIVMTQSPLSLPVTPGEPASISCQASYELVHMNRNTYLHWYQQKPGQAPRLLIYKVSNRFPGVPDRFSGSGSGTDFTLKISRVEAEDVGVYYCAQGTSVPFTFGQGTKLEIK
notes: Dual-Ig
B13: H183/L072 VL Q90K (antibody, name in Kabat numbering, V domains shown)
VH: QVQLVESGGGLVQPGRSLRLSCAASGFTFSNAWMHWVRQAPGKGLEWVAQIKDKGNAYAAYYAPSVKGRFTISRDDSKNSIYLQMNSLKTEDTAVYYCHYVHYASASTVLPAFGVDAWGQGTTVTVSS
VL: DIVMTQSPLSLPVTPGEPASISCQASQELVHMNRNTYLHWYQQKPGQAPRLLIYKVSNRFPGVPDRFSGSGSGTDFTLKISRVEAEDVGVYYCAKGTSVPFTFGQGTKLEIK
notes: Dual-Ig
B14: H183/L072 VL Q90E (antibody, name in Kabat numbering, V domains shown)
VH: QVQLVESGGGLVQPGRSLRLSCAASGFTFSNAWMHWVRQAPGKGLEWVAQIKDKGNAYAAYYAPSVKGRFTISRDDSKNSIYLQMNSLKTEDTAVYYCHYVHYASASTVLPAFGVDAWGQGTTVTVSS
VL: DIVMTQSPLSLPVTPGEPASISCQASQELVHMNRNTYLHWYQQKPGQAPRLLIYKVSNRFPGVPDRFSGSGSGTDFTLKISRVEAEDVGVYYCAEGTSVPFTFGQGTKLEIK
notes: Dual-Ig

T1 sequence (chain, as listed by the source limits assumed): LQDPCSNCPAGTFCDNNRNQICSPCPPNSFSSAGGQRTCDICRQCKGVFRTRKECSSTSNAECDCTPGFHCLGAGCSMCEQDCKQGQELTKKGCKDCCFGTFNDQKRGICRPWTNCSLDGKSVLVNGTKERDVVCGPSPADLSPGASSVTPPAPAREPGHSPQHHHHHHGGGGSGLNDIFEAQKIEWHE

The experiment has as its target T1, Human CD137 ECD (human).
T1 construct: entry includes C-terminal His-tag and biotin acceptor peptide; also called human CD137 extracellular domain; 4-1BB
Briefly: Biacore SPR, vs parent H183/L072.
As to B1, the “fold change of affinity” value is 0.9 fold. To B2 belongs 0 fold. Next, B3: 0.9 fold. To B4 belongs 0.8 fold; to B5, 0 fold; to B6, 0 fold.

Regarding B7, the “fold change of affinity” value came out at 0 fold.

Turning to B8, the “fold change of affinity” value was determined as 0.5 fold. For the molecule B9, the “fold change of affinity” value came out at 0.8 fold. To B10 belongs 0 fold; to B11, 0.2 fold; to B12, 0.7 fold. Next, B13: 0 fold; B14: 0 fold.

The values above are taken from patent US20210388087A1 (Chugai, published 2021).
